Tested on: small intestinal immune cells
Assay: Droplet-based scRNA-seq of small intestinal immune cells (LP and PP), OVA vs PBS, clustering and differential expression
Format: in vivo, mouse
Conditions: PP, cluster ID 6
Text: To comprehensively characterize small intestinal immune cells, Applicants generated scRNA-Seq profiles for 58,067 immune cells collected from lamina propria (LP) and Peyer's patch (PP) regions at steady state and after induction of a type 2 inflammatory reaction to ovalbumin (OVA) (Brandt et al., 2003) (FIGS. 1A and 8A). To ensure sufficient representation of rare cells, Applicants combined a normalization strategy—removing by flow sorting either a portion of IgD+ naïve B cells, which are the most abundant cell type in PPs, or all CD19+ and CD3+ T cells (FIG. 8B, Methods)—with profiling of a sufficiently large number of cells number (P>0.99 to recover at least 15 cells from each cluster, Methods) by massively parallel scRNA-seq (Haber et al., 2017) (Methods). Applicants obtained 36,797 and 21,270 high quality cells passing initial filtering (Methods) from PP and LP regions, respectively.
Overall, Applicants annotated 27 cell subsets across the two compartments, spanning T cells, B cells, ILCs, dendritic cells (DCs), myeloid cells and stromal cells, in frequencies ranging from 0.07% to 14%. Briefly, Applicants first partitioned the cells from the PP regions by unsupervised clustering (Methods) into 46 clusters, retained the 97% of cells that were robustly assigned cell identities in each cluster (Methods), assigned the cells from the LP regions to the 46 clusters using a classifier (Methods), and visualized the data with scvis (Ding et al., 2018), a deep generative model-based method (FIGS. 1B and 8C, Methods). Next, Applicants identified genes that were differentially expressed between the cells in each cluster and the remaining cells (Table 1, Methods), as well as between pairs of clusters (Table 2), to elucidate identities of similar cell types/states. Applicants excluded from downstream analysis clusters mostly consisting of contaminants from epithelium, likely doublets, or cells with a small number of Unique Molecular Identifiers (UMIs) (FIGS. 1C and 8D), or lacking distinct markers (Methods). Altogether, Applicants retained 27 clusters spanning 85% of the cells and each associated with distinct marker genes (FIG. 8E, Methods).
To induce allergic reaction to OVA, 6 to 7 weeks old mice were sensitized twice, two weeks apart, with 50 μg of OVA plus 1 mg of aluminum potassium sulfate adjuvant via intraperitoneal injection. Two weeks later, mice were orally administered with 50 mg of OVA on every other day for a total of five times. 1 μg of α-CGRP peptide was administered simultaneously when indicated. Mice were deprived of food for 3-4 hours in cages with wood chip bedding for limiting antigen degradation in the stomach before each intragastric challenge.
Isolation of cells from Peyer's patches (PPs). Peyer's patches (PPs) were carefully dissected from the small intestine under a stereo microscope using a fine scissor, pierced once with a fine forcep. Tissues were digested in freshly made digestion buffer (RPMI-1640 containing 100 μg/ml Liberase™ and 50 μg/ml DNase I at 37° C. on a roto-mixer. After 15 min, tissues were very gently mixed using a 1 ml pipette. The supernatant was collected and added to ice-cold MACS buffer (pH 7.4; PBS plus 2% FCS and 2 mM EDTA). Pre-warmed (37° C.) fresh digestion buffer was added to the remaining tissues. After rotation at 37° C. for 15 min, the mixture was vigorously mixed using a 1 ml pipette for 1 min. Supernatants from the two steps were combined and passed through 70 μm filters and stained for FACS (below).
Isolation of cells from the lamina propria (LP). The small intestines were opened longitudinally and washed in ice-cold PBS. For scRNA-seq, roughly 0.5 cm of fragments from each of the distal, middle and proximal regions without visible PPs were collected. Epithelial cells were dissociated by tissue rotation in pre-warmed (37° C.) PBS containing 10 mM EDTA at 37° C. for 15 min, followed by additional incubation on ice for 15 min. Tissues were then shaken vigorously. […]

B1: OVA (protein, UniProt P01012 2-386, looked up)
Ovalbumin: GSIGAASMEFCFDVFKELKVHHANENIFYCPIAIMSALAMVYLGAKDSTRTQINKVVRFDKLPGFGDSIEAQCGTSVNVHSSLRDILNQITKPNDVYSFSLASRLYAEERYPILPEYLQCVKELYRGGLEPINFQTAADQARELINSWVESQTNGIIRNVLQPSSVDSQTAMVLVNAIVFKGLWEKAFKDEDTQAMPFRVTEQESKPVQMMYQIGLFRVASMASEKMKILELPFASGTMSMLVLLPDEVSGLEQLESIINFEKLTEWTSSNVMEERKIKVYLPRMKMEEKYNLTSVLMAMGITDVFSSSANLSGISSAESLKISQAVHAAHAEINEAGREVVGSAEAGVDAASVSEEFRADHPFLFCIKHIATNAVLFFGRCVSP
  5730508B09Rik percentage of expressing cells in OVA-treated group: 0.268
  Ablim1 percentage of expressing cells in OVA-treated group: 0.403
  Arid3a percentage of expressing cells in OVA-treated group: 0.212
  Arl4a percentage of expressing cells in OVA-treated group: 0.228
  Asph percentage of expressing cells in OVA-treated group: 0.377
  Cdkn2d percentage of expressing cells in OVA-treated group: 0.747
  Cfp percentage of expressing cells in OVA-treated group: 0.422
  Ctsz percentage of expressing cells in OVA-treated group: 0.97
  Fcer1g percentage of expressing cells in OVA-treated group: 0.94
  Gadd45b percentage of expressing cells in OVA-treated group: 0.342
  Gatad1 percentage of expressing cells in OVA-treated group: 0.34
  Gnai2 percentage of expressing cells in OVA-treated group: 0.932
  Grb2 percentage of expressing cells in OVA-treated group: 0.614
  H2-DMa percentage of expressing cells in OVA-treated group: 0.878
  Hnrnpa3 percentage of expressing cells in OVA-treated group: 0.851
  Irf4 percentage of expressing cells in OVA-treated group: 0.256
  Itgb7 percentage of expressing cells in OVA-treated group: 0.669
  Klf3 percentage of expressing cells in OVA-treated group: 0.125
  Klk1b27 percentage of expressing cells in OVA-treated group: 0.974
  Lifr percentage of expressing cells in OVA-treated group: 0.595
  Map3k1 percentage of expressing cells in OVA-treated group: 0.346
  Mark3 percentage of expressing cells in OVA-treated group: 0.139
  Net1 percentage of expressing cells in OVA-treated group: 0.53
  Orai1 percentage of expressing cells in OVA-treated group: 0.274
  Paqr5 percentage of expressing cells in OVA-treated group: 0.52
  Pde4b percentage of expressing cells in OVA-treated group: 0.177
  Pdia3 percentage of expressing cells in OVA-treated group: 0.844
  Pink1 percentage of expressing cells in OVA-treated group: 0.282
  Pten percentage of expressing cells in OVA-treated group: 0.429
  Ptprcap percentage of expressing cells in OVA-treated group: 0.941
  Rab7b percentage of expressing cells in OVA-treated group: 0.223
  Rsrp1 percentage of expressing cells in OVA-treated group: 0.754
  Sema4b percentage of expressing cells in OVA-treated group: 0.531
  Sertad1 percentage of expressing cells in OVA-treated group: 0.12
  Snrnp70 percentage of expressing cells in OVA-treated group: 0.43
  Tmem50a percentage of expressing cells in OVA-treated group: 0.854
  Tmem59 percentage of expressing cells in OVA-treated group: 0.833
  Tmem86a percentage of expressing cells in OVA-treated group: 0.204
  Tsix percentage of expressing cells in OVA-treated group: 0.23
  Txndc5 percentage of expressing cells in OVA-treated group: 0.699
OVA vs PBS
  5730508B09Rik LN (average fold change): −0.218
  Ablim1 LN (average fold change): −0.197
  Arid3a LN (average fold change): −0.329
  Arl4a LN (average fold change): −0.276
  Asph LN (average fold change): −0.195
  Cdkn2d LN (average fold change): 0.244
  Cfp LN (average fold change): 0.312
  Ctsz LN (average fold change): 0.156
  Fcer1g LN (average fold change): 0.160
  Gadd45b LN (average fold change): −0.220
  Gatad1 LN (average fold change): −0.199
  Gnai2 LN (average fold change): −0.175
  Grb2 LN (average fold change): −0.222
  H2-DMa LN (average fold change): 0.190
  Hnrnpa3 LN (average fold change): 0.164
  Irf4 LN (average fold change): −0.248
  Itgb7 LN (average fold change): 0.238
  Klf3 LN (average fold change): −0.428
  Klk1b27 LN (average fold change): 0.170
  Lifr LN (average fold change): 0.265
  Map3k1 LN (average fold change): −0.227
  Mark3 LN (average fold change): −0.383
  Net1 LN (average fold change): 0.285
  Orai1 LN (average fold change): −0.245
  Paqr5 LN (average fold change): 0.279
  Pde4b LN (average fold change): −0.282
  Pdia3 LN (average fold change): 0.157
  Pink1 LN (average fold change): −0.291
  Pten LN (average fold change): −0.226
  Ptprcap LN (average fold change): 0.159
  Rab7b LN (average fold change): −0.285
  Rsrp1 LN (average fold change): 0.195
  Sema4b LN (average fold change): 0.221
  Sertad1 LN (average fold change): −0.396

Source: patent US20220143148A1, “COMPOSITIONS AND METHODS FOR MODULATING CGRP SIGNALING TO REGULATE INTESTINAL INNATE LYMPHOID CELLS” (The Broad Institute, Inc., priority 2019, published 2022)
